This passage reports binding result, Kd and binding signal results from patent publication US20030096349, “N4 virion single-stranded DNA dependent RNA polymerase” (The University of Chicago, published 2003).

Broadly, the Kd is the constant that tells how readily two partners part at equilibrium. High values mean lower affinity, low ones higher affinity.

In data set [1] the target is T1, mini-vRNAP, non-His-tagged (Bacteriophage N4, UniProt Q859P9 SEQ:2-1107).
T1 chain: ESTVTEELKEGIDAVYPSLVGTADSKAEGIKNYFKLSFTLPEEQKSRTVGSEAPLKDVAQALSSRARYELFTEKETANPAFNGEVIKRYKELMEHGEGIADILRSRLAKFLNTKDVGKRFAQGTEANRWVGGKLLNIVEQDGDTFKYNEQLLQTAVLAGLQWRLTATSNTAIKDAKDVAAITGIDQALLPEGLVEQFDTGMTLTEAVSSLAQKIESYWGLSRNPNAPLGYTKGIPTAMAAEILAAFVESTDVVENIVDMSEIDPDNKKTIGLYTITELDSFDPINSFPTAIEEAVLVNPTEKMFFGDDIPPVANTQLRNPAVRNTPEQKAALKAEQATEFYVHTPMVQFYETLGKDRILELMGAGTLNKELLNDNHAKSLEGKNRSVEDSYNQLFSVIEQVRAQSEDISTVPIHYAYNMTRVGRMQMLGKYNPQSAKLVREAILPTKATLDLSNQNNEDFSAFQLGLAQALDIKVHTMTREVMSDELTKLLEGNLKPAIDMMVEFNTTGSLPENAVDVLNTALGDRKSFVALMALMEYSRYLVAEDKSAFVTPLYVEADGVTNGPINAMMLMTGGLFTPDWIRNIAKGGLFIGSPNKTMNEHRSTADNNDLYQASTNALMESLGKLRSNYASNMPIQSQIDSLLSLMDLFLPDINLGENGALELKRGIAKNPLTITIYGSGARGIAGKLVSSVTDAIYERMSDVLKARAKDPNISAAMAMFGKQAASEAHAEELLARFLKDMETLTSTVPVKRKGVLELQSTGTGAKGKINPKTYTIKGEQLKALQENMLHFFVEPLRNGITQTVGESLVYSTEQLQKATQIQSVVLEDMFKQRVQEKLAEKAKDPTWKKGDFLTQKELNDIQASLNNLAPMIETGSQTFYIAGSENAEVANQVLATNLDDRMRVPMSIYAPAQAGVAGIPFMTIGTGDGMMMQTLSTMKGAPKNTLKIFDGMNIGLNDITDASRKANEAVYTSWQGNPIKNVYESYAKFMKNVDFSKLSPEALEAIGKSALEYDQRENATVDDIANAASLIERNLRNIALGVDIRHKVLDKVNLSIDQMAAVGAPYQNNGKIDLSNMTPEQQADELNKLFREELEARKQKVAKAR
The data set is described as follows: pulldown; DNA-affinity column; lower yield than SEQ 16. The settings on record: label: biotin; hairpin. The method, then: (§1) This property was used for purification of non-his tagged mini-vRNAP (SEQ ID NO:4) on a DNA-affinity column. The column was prepared by adsorbing a 5′ biotinylated N4 promoter-containing DNA oligonucleotide onto the matrix of a 1 ml HiTrap Streptavidin column (Pharmacia/Amersham Cat.#17-5112-01) according to the manufacturer's instructions. A debris-free sonicate of bacterial cells expressing mini-vRNAP was passed through the column. […] Nucleases in the extract are inhibited by addition of 2 mM EDTA. After washing the column, mini-vRNAP was eluted with warm (25° C.) water; the elution temperature was raised from 4° C. to 25° C. to increase mini-vRNAP recovery. For complete elution, the temperature can be raised up to 43° C. without significant change in the quality of the preparation. Elution under these conditions occurs due to the removal of metal ions and consequent melting of the promoter hairpin and dissociation of mini-vRNAP. Different DNA oligonucleotides containing variants of the P2 promoter (SEQ ID NOS:16-19), were used in DNA-affinity columns and tested in mini-vRNAP affinity purification. The best yield was achieved using the DNA oligonucleotide of SEQ ID NO:16. […]

For data set [2], the target named is T2, mini-vRNAP (N4 virion RNA polymerase central domain) (Bacteriophage N4, UniProt Q859P9 SEQ:38-1143).
T2 chain: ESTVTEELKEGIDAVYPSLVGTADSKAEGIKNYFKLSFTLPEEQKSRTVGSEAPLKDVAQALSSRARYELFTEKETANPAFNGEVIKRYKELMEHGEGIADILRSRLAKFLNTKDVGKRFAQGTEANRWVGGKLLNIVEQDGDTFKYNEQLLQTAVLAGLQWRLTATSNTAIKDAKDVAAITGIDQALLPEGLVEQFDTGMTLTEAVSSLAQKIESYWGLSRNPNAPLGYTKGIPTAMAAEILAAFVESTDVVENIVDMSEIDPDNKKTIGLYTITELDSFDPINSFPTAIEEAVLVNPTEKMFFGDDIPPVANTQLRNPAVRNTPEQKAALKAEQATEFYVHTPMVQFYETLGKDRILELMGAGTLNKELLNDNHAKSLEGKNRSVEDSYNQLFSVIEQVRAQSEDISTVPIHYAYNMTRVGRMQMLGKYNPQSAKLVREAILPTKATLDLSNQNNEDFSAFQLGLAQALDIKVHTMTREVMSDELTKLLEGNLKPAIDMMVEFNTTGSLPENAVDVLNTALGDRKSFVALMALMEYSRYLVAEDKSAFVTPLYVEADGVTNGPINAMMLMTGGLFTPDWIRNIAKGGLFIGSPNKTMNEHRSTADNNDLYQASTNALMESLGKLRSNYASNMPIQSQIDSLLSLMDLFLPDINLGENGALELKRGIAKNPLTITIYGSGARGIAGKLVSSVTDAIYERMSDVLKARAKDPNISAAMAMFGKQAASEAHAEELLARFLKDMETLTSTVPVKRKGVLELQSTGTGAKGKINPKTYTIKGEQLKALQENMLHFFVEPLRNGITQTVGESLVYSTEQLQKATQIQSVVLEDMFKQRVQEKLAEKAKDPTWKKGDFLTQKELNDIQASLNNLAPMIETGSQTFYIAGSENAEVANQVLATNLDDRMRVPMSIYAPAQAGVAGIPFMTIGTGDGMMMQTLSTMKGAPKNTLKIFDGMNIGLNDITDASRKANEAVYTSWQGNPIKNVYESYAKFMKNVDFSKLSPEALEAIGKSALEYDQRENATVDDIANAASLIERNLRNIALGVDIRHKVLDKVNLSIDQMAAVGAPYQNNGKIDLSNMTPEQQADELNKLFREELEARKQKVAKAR
The data set is described as follows: filter; wild type affinity; crosslinks. Conditions: tags: N-terminal His6 (pBAD B); TALON and MonoQ; label: 32P; hairpin. From the text:
To study the sequence determinants of promoter binding, 20 base-long promoter oligonucleotides, containing the wild type vRNAP promoter P2 sequence and substituted at every position with a single 5-Iodo-dU, were used. Whenever substitutions were made in the stem, the corresponding pairing base was changed to A. These oligonucleotides were ³²P end-labeled and used to determine the enzyme's affinity for promoter DNAs by a filter binding assay and the ability to crosslink to mini-vRNAP upon UV irradiation at 320 nm.

The target in data set [3] is T3, mini-vRNAP Y678F (Bacteriophage N4, UniProt Q859P9 SEQ:38-1143).
T3 chain: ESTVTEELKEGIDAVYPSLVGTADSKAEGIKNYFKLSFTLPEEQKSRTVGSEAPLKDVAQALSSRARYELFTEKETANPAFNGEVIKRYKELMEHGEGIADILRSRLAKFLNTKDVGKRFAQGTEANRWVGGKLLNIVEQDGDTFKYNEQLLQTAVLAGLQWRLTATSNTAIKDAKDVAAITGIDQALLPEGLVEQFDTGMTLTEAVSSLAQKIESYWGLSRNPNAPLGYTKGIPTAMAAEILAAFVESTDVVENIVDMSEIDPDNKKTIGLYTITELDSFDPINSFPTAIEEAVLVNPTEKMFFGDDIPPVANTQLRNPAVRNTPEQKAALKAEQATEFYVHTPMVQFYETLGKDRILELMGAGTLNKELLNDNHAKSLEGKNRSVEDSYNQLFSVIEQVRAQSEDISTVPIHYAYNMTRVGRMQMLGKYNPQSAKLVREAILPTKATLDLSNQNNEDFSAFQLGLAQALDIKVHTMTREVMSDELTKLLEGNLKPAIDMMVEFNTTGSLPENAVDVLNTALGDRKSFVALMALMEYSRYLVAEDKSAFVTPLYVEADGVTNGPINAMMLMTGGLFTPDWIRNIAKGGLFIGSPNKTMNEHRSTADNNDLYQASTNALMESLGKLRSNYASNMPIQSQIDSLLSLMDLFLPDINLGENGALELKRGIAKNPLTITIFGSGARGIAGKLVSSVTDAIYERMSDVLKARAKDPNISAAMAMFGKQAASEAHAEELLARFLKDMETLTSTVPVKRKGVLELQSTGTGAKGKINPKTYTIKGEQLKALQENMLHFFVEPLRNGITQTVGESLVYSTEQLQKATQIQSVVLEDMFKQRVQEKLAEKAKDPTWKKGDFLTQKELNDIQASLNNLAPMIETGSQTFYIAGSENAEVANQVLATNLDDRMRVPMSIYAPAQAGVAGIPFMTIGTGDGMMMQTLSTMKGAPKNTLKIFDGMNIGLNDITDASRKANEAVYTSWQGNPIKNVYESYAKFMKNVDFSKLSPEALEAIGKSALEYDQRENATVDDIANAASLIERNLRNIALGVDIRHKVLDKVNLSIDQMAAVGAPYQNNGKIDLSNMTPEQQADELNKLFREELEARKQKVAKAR
The data set is described as follows: UV crosslinking as well as wild type enzyme. Conditions: tags: N-terminal His6; label: 32P; hairpin.

Data set [4] concerns the target T2, mini-vRNAP (N4 virion RNA polymerase …). Put plainly: filter; range given for two or one remaining loop-closing bp. Conditions: tags: N-terminal His6 (pBAD B), TALON and MonoQ, hairpin. As to the method:
(§2) The effect of changes in the stem length of the hairpin on the ability of mini-vRNAP to bind P2 promoter DNA was analyzed. […] The stem can be shortened by two base pairs without change in the binding affinity. […] No binding is observed if one more nucleotide is removed and the loop cannot form.

The target is the same in data set [5]. The data set is described as follows: filter; stem lengthened by two bp, affinity unchanged. Conditions: tags: N-terminal His6 (pBAD B); TALON and MonoQ; hairpin, 7 bp stem.
Data set [6] deals with T1, mini-vRNAP, non-His-tagged. Put plainly: pulldown; DNA-affinity column; elutes at lower temperature than SEQ 16. Conditions: label: biotin. The method, then: as §1
For data set [7], the target named is T2, mini-vRNAP (N4 virion RNA polymerase …). The data set is described as follows: filter; no binding when loop cannot form. Conditions: tags: N-terminal His6 (pBAD B), TALON and MonoQ. As to the method:
as §2

Data set [8] concerns the target T1, mini-vRNAP, non-His-tagged. The data set is described as follows: pulldown; DNA-affinity column, pH 5-9, 50 mM-2 M NaCl, 2 mM EDTA in extract; best yield. The settings on record: label: biotin; hairpin. The method, then:
as §1

For data set [9], the target named is T2, mini-vRNAP (N4 virion RNA polymerase …). The data set is described as follows: filter; two orders of magnitude reduction. Conditions: tags: N-terminal His6 (pBAD B); TALON and MonoQ; hairpin, 8 bp stem.
For data set [10] the target is unchanged. Put plainly: filter; stem shortened by two bp, affinity unchanged. The settings on record: tags: N-terminal His6 (pBAD B); TALON and MonoQ; hairpin, 3 bp stem. The method, then:
as §2

Regarding GGATCCAAAAGAAGCGGAGCTTC (ssDNA, 5' biotin) [P2 affinity oligo SEQ 18], the binding result in [1] is reported as “binds”.

Regarding TCCAAAAGAAGCGGAGCTTC (ssDNA, 5-iodo-dU at +3) [P2 20-mer 5-iodo-dU at +3], the binding result in data set [2] and in [3] was “binds” each time.

Turning to TCCAAAAGAAGCGGAGC (ssDNA) [P2 stem shortened to 2 bp], the Kd in data set [4] (2 bp stem) stood at 4.47 nM.

For TCCAAAAGAAGCGGAGCTTCTT (ssDNA, [none]) [P2 stem lengthened to 7 bp], the Kd in [5] was approximately 1 nM.

For the molecule GGCATTACTTCATCCAAAAGAAGCGGAGC (ssDNA, 5' biotin) [P2 affinity oligo SEQ 20 (shortened stem)], the binding result in [6] is “binds”.

For the molecule GGCCATCCATTACTTCATCCAAAAGAAGCGGAGCTTC (ssDNA, 5' biotin) [P2 affinity oligo SEQ 17], in [1], the binding result is listed as “binds”.

For the molecule TCCAAAAGAAGCGGAGCTTC (ssDNA, 5-iodo-dU at -11 (loop centre)) [P2 20-mer 5-iodo-dU at -11], the binding result in data set [3] is reported as “binds”.

Take TCCAAAAGAAGCGGA (ssDNA) [P2 without stem]: the binding result in [7] was “no binding”.

Turning to GGCATTACTTCATCCAAAAGAAGCGGAGCTTC (ssDNA, 5' biotin) [P2 affinity oligo SEQ 16], in [8], the binding result is reported as “binds”.

Turning to GGCATTACTTCATCCAAAAGAAGCTGAGCTTC (ssDNA, 5' biotin) [P2 affinity oligo SEQ 19 (loop/stem variant)], the binding result in [6] is recorded as “binds”.

In the case of TCCAAAAGAAGCGGAGCTTCTTT (ssDNA, [none]) [P2 stem lengthened, base paired to -2], in data set [9], the binding signal is approximately 100 fold lower affinity.

Take TCCAAAAGAAGCGGAGCTTC (ssDNA, 5-iodo-dU at +1) [P2 20-mer 5-iodo-dU at +1]: the binding result in [2] was “binds”.

The molecule TCCAAAAGAAGCGGAGCT (ssDNA) [P2 stem shortened to 3 bp] came in with a Kd in data set [10] of approximately 1 nM.

Take TCCAAAAGAAGCGGAGCTTC (ssDNA, 5-iodo-dU at +2) [P2 20-mer 5-iodo-dU at +2]: the binding result in [2] is “binds”.

In data set [4] (1 loop-closing bp), TCCAAAAGAAGCGGAG (ssDNA) [P2 stem shortened to 1 bp] had a Kd of 4.47 nM.
